Experimental data reported in PMC10407285 (The Journal of Biological Chemistry, 2023).

Key:
[1] = test system: Ca. Atribacteria bacterium SpeD2 (PIU25646); conditions: 50 mM Hepes pH 7.7, 100 mM NaCl, 1 mM DTT, 26 °C; pyruvoyl-dependent decarboxylation
Description: coupled CO2-release assay (NADH, A340), Michaelis-Menten fit on Ca. Atribacteria bacterium SpeD2 (PIU25646)

[2] = target: T1, Ca. Electrothrix aarhusiensis SpeD homolog (RWX43081) (Candidatus Electrothrix aarhusensis, UniProt A0A3S3QFL2); conditions: 50 mM Hepes pH 7.7, 100 mM NaCl, 1 mM DTT, 26 °C; pyruvoyl-dependent decarboxylation
T1 construct: gene H206_03171
Description: coupled CO2-release assay (NADH, A340), Michaelis-Menten fit on Ca. Electrothrix aarhusiensis SpeD homolog (RWX43081)

[3] = test system: Ca. Sumerlaeota bacterium SpeD2 (MBN1518199); conditions: 50 mM Hepes pH 7.7, 100 mM NaCl, 1 mM DTT, 26 °C; pyruvoyl-dependent decarboxylation
Description: coupled CO2-release assay (NADH, A340), Michaelis-Menten fit on Ca. Sumerlaeota bacterium SpeD2 (MBN1518199)

[4] = test system: Ca. Peribacteria bacterium SpeD (OGJ64158); conditions: 50 mM Hepes pH 7.7, 100 mM NaCl, 1 mM DTT, 26 °C; pyruvoyl-dependent decarboxylation
Description: coupled CO2-release assay (NADH, A340), Michaelis-Menten fit on Ca. Peribacteria bacterium SpeD (OGJ64158)

[5] = test system: N=C(N)NCCC[C@H](N)C(=O)O; assay: purified protein; conditions: 50 mM Hepes pH 7.7, 100 mM NaCl, 1 mM DTT, 26 °C, pyruvoyl-dependent decarboxylation
[6] = target: T2, Ca. Woesearchaeota archaeon SpeD homolog (PIN80235) (Candidatus Woesearchaeota archaeon CG10_big_fil_rev_8_21_14_0_10_34_8, UniProt A0A2G9MN15); assay: coupled CO2-release assay (NADH, A340), Michaelis-Menten fit; format: biochemical; conditions: 50 mM Hepes pH 7.7, 100 mM NaCl, 1 mM DTT, 26 °C; pyruvoyl-dependent decarboxylation
T2 construct: self-processed pyruvoyl enzyme
Description: Woesearchaeota archaeon SpeD homolog (PIN80235)

[7] = target: T3, Ca. Marinimicrobia bacterium SpeD (PIS27863) (Fidelibacterota bacterium CG08_land_8_20_14_0_20_45_22, UniProt A0A2H0XSF6); assay: as above; format: biochemical, Candidatus Fidelibacterota bacterium; conditions: 50 mM Hepes pH 7.7, 100 mM NaCl, 1 mM DTT, 26 °C; pyruvoyl-dependent decarboxylation
T3 construct: self-processed pyruvoyl enzyme
Description: Marinimicrobia bacterium SpeD (PIS27863)

[8] = target: T4, Ca. Diapherotrites archaeon SpeD homolog (PIN84875) (Candidatus Diapherotrites archaeon CG11_big_fil_rev_8_21_14_0_20_37_9, UniProt A0A2G9N1A6); assay: as above; format: biochemical; conditions: 50 mM Hepes pH 7.7, 100 mM NaCl, 1 mM DTT, 26 °C; pyruvoyl-dependent decarboxylation
T4 construct: self-processed pyruvoyl enzyme
Description: Diapherotrites archaeon SpeD homolog (PIN84875)

[9] = substrate: N=C(N)NCCC[C@H](N)C(=O)O; assay: as above; format: biochemical, Tribonema minus; conditions: 50 mM Hepes pH 7.7, 100 mM NaCl, 1 mM DTT, 26 °C, pyruvoyl-dependent decarboxylation
Description: coupled CO2-release assay (NADH, A340), Michaelis-Menten fit on Tribonema minus SpeD homolog (KAG5182568)

[10] = substrate: NCCC[C@H](N)C(=O)O; assay: purified protein; conditions: 50 mM Hepes pH 7.7, 100 mM NaCl, 1 mM DTT, 26 °C, pyruvoyl-dependent decarboxylation
[11] = substrate: N=C(N)NCCC[C@H](N)C(=O)O; assay: coupled CO2-release assay (NADH, A340), Michaelis-Menten fit; format: biochemical, Capsulimonas corticalis; conditions: 50 mM Hepes pH 7.7, 100 mM NaCl, 1 mM DTT, 26 °C, pyruvoyl-dependent decarboxylation
Description: coupled CO2-release assay (NADH, A340), Michaelis-Menten fit on Capsulimonas corticalis SpeD homolog (WP_119321511)

T2 sequence (A0A2G9MN15 1-79 limits assumed): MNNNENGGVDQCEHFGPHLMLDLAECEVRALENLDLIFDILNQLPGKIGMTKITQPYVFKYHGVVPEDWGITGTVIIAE
T2 sequence (A0A2G9MN15 80-150 limits assumed): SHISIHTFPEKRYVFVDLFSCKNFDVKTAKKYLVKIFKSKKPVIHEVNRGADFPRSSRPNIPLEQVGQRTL
T1 sequence (A0A3S3QFL2 entry or part of it): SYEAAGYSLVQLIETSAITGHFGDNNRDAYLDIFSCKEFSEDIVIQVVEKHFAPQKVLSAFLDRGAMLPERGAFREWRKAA
T1 sequence (A0A3S3QFL2 entry or part of it): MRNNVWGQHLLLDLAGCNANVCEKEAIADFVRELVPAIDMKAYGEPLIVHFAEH
T3 sequence (A0A2H0XSF6 1-72 limits assumed): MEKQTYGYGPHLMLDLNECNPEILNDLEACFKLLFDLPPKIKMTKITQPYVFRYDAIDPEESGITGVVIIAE
T3 sequence (A0A2H0XSF6 73-131 limits assumed): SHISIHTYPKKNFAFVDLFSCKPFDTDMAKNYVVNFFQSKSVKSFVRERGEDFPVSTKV
T4 sequence (A0A2G9N1A6 1-75 limits assumed): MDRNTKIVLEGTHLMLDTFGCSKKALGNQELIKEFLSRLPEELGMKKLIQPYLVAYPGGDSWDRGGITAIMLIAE
T4 sequence (A0A2G9N1A6 76-142 limits assumed): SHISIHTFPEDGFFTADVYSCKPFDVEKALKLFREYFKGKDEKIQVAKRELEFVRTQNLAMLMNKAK

## NCCC[C@H](N)C(=O)O [L-ornithine]
[1]
  Km: 330 ± 30 µM
[2]
  Km: 89 ± 13 µM
[3]
  Km: 21 ± 1.3 µM
[4]
  Km: 270 ± 20 µM

## Ca. Poseidonales archaeon SpeD homolog (DAC51064) (Candidatus Poseidoniales archaeon)
[5]
  Km: 2800 ± 500 µM
  kcat: 0.48 ± 0.042 s⁻¹
  kcat/Km: 180 ± 19 M⁻¹ s⁻¹

## Nannochloropsis gaditana SpeD homolog (XP_005856029) (Microchloropsis gaditana)
[5]
  Km: 1300 ± 100 µM
  kcat: 0.049 ± 0.003 s⁻¹
  kcat/Km: 39 ± 0.3 M⁻¹ s⁻¹

## N=C(N)NCCC[C@H](N)C(=O)O [L-arginine]
[6]
  Km: 350 ± 24 µM
[7]
  Km: 760 ± 50 µM
[8]
  Km: 95 ± 19 µM

B1: Tribonema minus SpeD homolog (KAG5182568) (Tribonema minus) (protein)
chain: MRVPIQRTTVPQSSPLIRAHGSHIMLDFTEWWMPPEEGAEAVMELVRAALREEGVREVHHKAVVLGTRGESPPGFTAVVLIDESHVTAHCYADRGWLALDVFTCGGASTARVAAAIEAGVRRLSPRAVLQQRASAPRFVHRVD
notes: self-processed pyruvoyl enzyme
[9]
  Km: 720 ± 110 µM
  kcat: 0.08 ± 0.004 s⁻¹
  kcat/Km: 110 ± 10 M⁻¹ s⁻¹

B2: Methanospirillum hungatei JF-1 SpeD2 (WP_011448617) (Methanospirillum hungatei JF-1) (protein)
chain: MIDTLVPTREGIATAPAKSDQEIMEEFKSRNAWGLYTSVDLKNCNPETIRDAGKIREFVIQLCDLIKMKRFGEPQIINFGPCERVAGYSMTQLIETSLIGAHFANETNAAYIDIFSCKEYAPQLTAEFCREFFGADKVTVHIAFRD
[10]
  Km: 230 ± 18 µM
  kcat: 0.05 s⁻¹
  kcat/Km: 220 M⁻¹ s⁻¹

B3: Ca. Velamenicoccus archaeovorus LiM SpeD homolog (WP_128700171) (Candidatus Velamenicoccus archaeovorus) (protein)
chain: MPKNVTMPAGSFGLEVVLDLYGCDPQTIRSAKKLSEFTTKLCKLLKMKKYGKTLLPHFGYDKAHTAGYSMLQFIETSSITGHFSELWNSAYINIFSCREFDAHKAADFTVKFFGARKATRRVLLRK
[10]
  Km: 73 ± 3.2 µM
  kcat: 0.008 s⁻¹
  kcat/Km: 113 M⁻¹ s⁻¹

B4: Capsulimonas corticalis SpeD homolog (WP_119321511) (Capsulimonas corticalis) (protein)
chain: MKNHTTYGAHLTLRIANIERRHALQGPHGVSDLLVDLIDRIGMRILAGPLTAEETGDPERRGWSSVAILYESHCAIHTYPELGEAFLDVFSCKTFPIAAITTLLTERFGEFAIVEQSLTDRGIHWGPNVEKELASWVLTRSEK
notes: as for B1
[11]
  Km: 370 ± 50 µM
  kcat: 0.08 ± 0.003 s⁻¹
  kcat/Km: 220 ± 36 M⁻¹ s⁻¹
